Experimental data reported in the supplement of paper PMC10567573.

B1: TRIM39 (parent)
chain: YPCVLATEGFTSGRHYWEVEVGDK
B2: KRT15 (parent)
chain: SNFHINVEESVDGQVVSSHKREI

Variants of: B1
Assay: protein stability index of a GFP-peptide fusion (GPS, HEK-293T) (PSI 1-6); higher = more stable
Details: c terminus: a fixed tail appended
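Also: lentivirally expressed fusions sorted by FACS into six bins by GFP to DsRed ratio, PSI derived from sequencing read proportions per bin multiplied by bin number.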

Protein stability index: each site, then its substitutions
C3: K 1.48 | M 1.91 | Q 1.9 | T 1.81 | G 1.98 | D 1.9 | I 2.41 | H 1.98 | E 3.41 | W 1.97 | R 2.99
E18: P 1.92 | A 3.12 | M 1.51 | Y 2.71 | S 2.72 | Q 1.05 | K 1.73 | D 1.45 | N 2.38 | F 1.81 | H 1.43
Y1: N 3.76 | W 2.74 | R 3.52 | V 2.8 | P 4.24 | H 3.55 | T 3.78 | L 2.96 | G 3.34 | K 3.15 | S 3.49 | A 3.11 | M 3.11
H15: E 3.05 | G 1.98 | S 2.16 | N 2.76 | C 2.2 | F 1.9 | T 2.17 | A 2.61 | Y 2.58 | P 2.16 | V 2.27 | Q 2.6 | L 1.56
F10: V 1.66 | N 2.34 | G 2.48 | D 2.45 | H 1.86 | P 2.12 | Q 1.63 | M 2.69 | E 2.77 | Y 2.26 | T 2.49 | S 1.9 | L 1.86
D23: Q 2.44 | P 1.43 | T 2.32 | S 1.76 | R 1.45 | Y 1.91 | N 3 | I 1.76 | V 1.65 | H 2.98 | A 1.79 | M 1.57 | L 2.51 | C 1.71 | G 1.82
G9: H 1.6 | W 1.96 | P 2.21 | Y 2.22 | T 2.03 | I 1.05 | V 1.81 | K 1.8 | R 2.38 | A 2.49 | C 1.57 | N 1.99 | E 2.2 | M 1.66
A6: I 2.09 | L 1.45 | E 1.71 | K 1.59 | Y 1.43 | C 1.44 | Q 2.47 | R 1.36 | H 1.99 | P 1.75 | D 2.12 | W 2.16 | T 3
E8: F 2.06 | T 2.01 | N 1.85 | V 2.14 | I 2.16 | Q 1.87 | K 2.25 | L 1.89 | P 1.62 | D 1.93 | R 1.58
W17: P 3.54 | L 2.97 | C 3.22 | K 2.76 | H 3.07 | M 3.21 | V 2.44 | G 3.44 | R 2.88 | Q 3.68 | A 3.49 | N 3.77 | F 2.41 | T 3.6
V21: A 2.51 | T 1.6 | K 2.15 | P 1.43 | R 2.05 | G 1.84 | E 1.77 | N 2.03 | I 2.24 | M 1.9 | Y 2.14 | S 1.88 | Q 1.87
L5: C 1.22 | D 2.17 | F 1.57 | Q 2.31 | R 1.54 | I 1.69 | A 1.87 | P 1.56 | H 1.36 | M 1.46 | E 2.34 | V 1.74 | N 2.58 | W 2.18 | S 2.26
P2: L 2.35 | E 2.67 | R 1.86 | G 2.58 | S 1.52 | F 1.78 | A 1.84 | M 1.76 | K 1.99 | I 1.1 | Y 1.66 | V 2.4 | Q 2.05 | C 1.94 | D 2.92
T7: N 2.45 | F 2.32 | K 2.46 | H 1.59 | L 1.98 | V 1.79 | A 2.27 | E 2.16 | D 1.74 | P 1.75 | G 1.77 | I 1.63 | S 1.57
S12: L 1.97 | T 1.76 | W 1.98 | D 2.79 | M 3.54 | R 2.79 | Y 1.68 | Q 1.66 | A 2.15 | I 2.33 | N 1.95 | V 1.6 | C 1.96 | P 1.81
G22: E 1.88 | D 1.92 | L 1.81 | Y 1.98 | C 1.66 | K 2.5 | M 1.58 | A 2.05 | P 1.85 | V 1.82 | Q 2.38 | I 1.67 | H 1.95 | S 2.19
R14: Y 1.95 | K 1.69 | G 2.48 | M 1.66 | N 1.91 | P 2.32 | F 1.81 | T 2.27 | S 2.07 | D 2.66 | I 2.17 | W 1.66
V19: R 2.4 | D 3.18 | E 2.59 | Q 2.86 | L 2.35 | S 1.93 | H 2.85 | A 1.96 | G 2.6 | K 2.98 | Y 2.64 | N 2.54 | T 1.41 | P 2.13
G13: E 1.87 | P 1.74 | K 2.39 | H 1.46 | F 1.56 | C 1.91 | V 2.15 | L 1.95 | Q 1.71 | I 1.73 | W 1.47 | A 1.48 | T 1.72 | M 1.59 | S 2.03 | N 1.57
K24: I 2.65 | F 2.23 | Y 2.5 | C 2.21 | Q 1.7 | N 2.1 | S 1.87 | E 2.66 | A 1.28 | P 2.16 | G 1.92 | W 1.96
T11: R 2.82 | H 1.71 | N 2.67 | D 2.17 | V 1.44 | M 1.73 | W 2.66 | G 2.09 | Q 1.72 | A 1.97 | E 2.39 | K 2.19 | C 1.73 | P 2.19
E20: Y 1.96 | P 1.57 | C 2.73 | V 2.31 | A 2.14 | T 2 | Q 1.51 | H 1.58 | D 1.98 | R 3.35 | M 1.59 | K 2.4 | I 1.96 | L 2.32 | N 2.06 | G 3.06
V4: T 1.68 | L 2.13 | E 2.88 | W 1.74 | P 2.01 | C 2.03 | K 1.79 | A 1.73 | F 2.18 | R 1.78 | Y 2.41 | I 1.85 | D 2.54
Y16: E 2.6 | M 2.45 | I 2.33 | T 1.35 | R 2.02 | H 2.04 | S 1.75 | K 2.38 | A 2.38 | N 2.56 | P 1.78 | C 1.5

Variants of: B2
Assay: as above
Details: c terminus: native

Protein stability index, by site and new letter:
I23: Q 4.43 | V 4.83 | W 2.45 | N 4.98 | H 4.13 | M 2.52 | P 3.83 | G 3.55 | R 3.09 | T 4.32 | S 3.79 | K 5.16 | Y 4.55
